Data: patent US20210380679A1 (INHIBRX BIOSCIENCES, published 2021)

T1: human DLL3 (Delta-like ligand 3) (human, UniProt Q9NYJ7 27-618)
T1 construct: endogenous on SHP-77 cells; also called cell-surface DLL3
T1 sequence: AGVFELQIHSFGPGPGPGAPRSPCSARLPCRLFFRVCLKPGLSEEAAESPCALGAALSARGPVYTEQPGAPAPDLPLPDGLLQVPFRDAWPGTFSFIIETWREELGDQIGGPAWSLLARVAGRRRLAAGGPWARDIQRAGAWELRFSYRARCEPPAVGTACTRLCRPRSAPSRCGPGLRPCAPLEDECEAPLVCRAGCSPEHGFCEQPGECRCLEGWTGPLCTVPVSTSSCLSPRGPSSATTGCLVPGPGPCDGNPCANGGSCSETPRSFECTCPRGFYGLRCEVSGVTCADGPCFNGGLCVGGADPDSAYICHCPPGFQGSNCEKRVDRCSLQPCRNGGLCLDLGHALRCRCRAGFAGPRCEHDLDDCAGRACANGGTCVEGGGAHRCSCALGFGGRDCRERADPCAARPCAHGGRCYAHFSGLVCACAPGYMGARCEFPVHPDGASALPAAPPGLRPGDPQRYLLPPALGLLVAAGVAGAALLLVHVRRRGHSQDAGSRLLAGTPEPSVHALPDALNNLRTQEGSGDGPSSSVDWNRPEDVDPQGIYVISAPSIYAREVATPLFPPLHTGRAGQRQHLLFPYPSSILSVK

B1: cx5800 (bispecific antibody)
chain 1: EVQLVESGGGEVQPGGSLRLSCAASGSIFSINAMGWYRQAPGKQRELVAGFTGDTNTIYAESVKGRFTISRDNAKNTVYLQMSSLRAEDTAVYYCAADVQLFSRDYEFYWGQGTLVTVKPDKTHTCPPCPAPGGPSVFLFPPKPKDTLMISRTPEVTCVVVDVSHEDPEVKFNWYVDGVEVHNAKTKPREEQYNSTYRVVSVLTVLHQDWLNGKEYKCKVSNKALPAPIEKTISKAKGQPREPQVYTLPPCRDELTKNQVSLWCLVKGFYPSDIAVEWESNGQPENNYKTTPPVLDSDGSFFLYSKLTVDKSRWQQGNVFSCSVMHEALHNHYTQKSLSLSPTGGGGGSGGGGGSGGGGGSEVQLVESGGGLVQPGGSLRLSCAASGFTFNTYAMNWVRQAPGKCLEWVARIRSKYNNYATYYADSVKGRFTISRDDAKNTLYLQMSSLRAEDTAVYYCVRHGNFGNSYVSWFAYWGQGTLVTVKP
chain 2: DKTHTCPPCPAPGGPSVFLFPPKPKDTLMISRTPEVTCVVVDVSHEDPEVKFNWYVDGVEVHNAKTKPREEQYNSTYRVVSVLTVLHQDWLNGKEYKCKVSNKALPAPIEKTISKAKGQPREPQVCTLPPSRDELTKNQVSLSCAVKGFYPSDIAVEWESNGQPENNYKTTPPVLDSDGSFFLVSKLTVDKSRWQQGNVFSCSVMHEALHNRYTQKSLSLSPTGGGGGSGGGGGSGGGGGSQAVVTQEPSLTVSPGGTVTLTCGSSTGAVTTSNYANWVQQKPGQAFRGLIGGTNKRAPGVPARFSGSLLGGKAALTISGAQPEDEADYYCALWYSNHWVFGCGTKLEIKEVQLLESGGGEVQPGGSLRLSCAASGFSFSINAMGWYRQAPGKRREFVAAIESGRNTVYAESVKGRFTISRDNAKNTVYLQMSSLRAEDTAVYYCGLLKGNRVVSPSVAYWGQGTLVTVKP
notes: monovalent for DLL3; junction linkers not placed
B2: cx5801 (bispecific antibody)
chain 1: DKTHTCPPCPAPGGPSVFLFPPKPKDTLMISRTPEVTCVVVDVSHEDPEVKFNWYVDGVEVHNAKTKPREEQYNSTYRVVSVLTVLHQDWLNGKEYKCKVSNKALPAPIEKTISKAKGQPREPQVYTLPPCRDELTKNQVSLWCLVKGFYPSDIAVEWESNGQPENNYKTTPPVLDSDGSFFLYSKLTVDKSRWQQGNVFSCSVMHEALHNHYTQKSLSLSPTGGGGGSGGGGGSGGGGGSEVQLVESGGGLVQPGGSLRLSCAASGFTFNTYAMNWVRQAPGKCLEWVARIRSKYNNYATYYADSVKGRFTISRDDAKNTLYLQMSSLRAEDTAVYYCVRHGNFGNSYVSWFAYWGQGTLVTVKPEVQLVESGGGEVQPGGSLRLSCGPSEIITSDKSMGWVRQAPGKQRNLVAGISNVGSTNYAQSVKGRFTISRDNAKNTVYLQMSSLRAEDTAVYYCYARDFENEYWGQGTLVTVKP
chain 2: B1 chain 2
notes: as for B1
B3: 6A1 (Fc fusion)
VHH: QVQLVQSGGGLVQAGGSLRLSCAASGFSLDDYTIGWFRQAPGKEREGVSCISSSGGSTVHADSVKGRFTISRDNAKNTVWLQMNSLKPEDTAVYYCATWCGVATMTEDLPFDYWGQGTLVTVKP
notes: tested as VHH-human Fc; Fc not specified

Assays:
[1] = molecular target: T2, CD3 on the surface of T cells (human, UniProt P07766 23-207); test: flow cytometry, construct titrated on isolated primary T cells, fluorophore-conjugated anti-human IgG Fc secondary
T2 construct: whole, on cells; multi-chain complex; also called CD3 epsilon
Experimental: (§1) Binding of exemplary multispecific polypeptide constructs of the disclosure containing an antigen-binding domain directed against DLL3 to CD3 on the surface of primary T cells and to DLL3 expressing cells (SHP-77) was assessed by flow cytometry. […] These binding assays were conducted by flow cytometry, wherein bound constructs were detected using a fluorophore-conjugated anti-human IgG Fc secondary antibody.

[2] = molecular target: T1, human DLL3 (Delta-like ligand 3); test: flow cytometry, construct titrated on SHP-77 cells (DLL3 positive), fluorophore-conjugated anti-human IgG Fc secondary
Experimental: as §1

[3] = molecular target: T1, human DLL3 (Delta-like ligand 3); test: flow cytometry of secreted sdAb-Fc on SHP-77 cells

T2 sequence (P07766 23-207): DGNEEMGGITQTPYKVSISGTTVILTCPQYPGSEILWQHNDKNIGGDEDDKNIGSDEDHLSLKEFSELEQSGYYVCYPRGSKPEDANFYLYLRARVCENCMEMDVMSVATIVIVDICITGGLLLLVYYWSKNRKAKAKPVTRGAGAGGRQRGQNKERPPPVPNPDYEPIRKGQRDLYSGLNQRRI

Binder | binding result [1] | binding result [2] | binding result [3]
B1 | no binding (tested: about 67 nM) | binds | –
B2 | no binding (tested: about 67 nM) | binds | –
B3 | – | – | binds
